Assays:
[1] = molecular target: Flag-Kr-h1^S154D (Locusta migratoria)
[2] = molecular target: Flag-Kr-h1 (Krüppel-homolog 1 of Locusta migratoria, wildtype, methoprene-exposed) (Locusta migratoria)
[3] = molecular target: Flag-Kr-h1^S154D (Locusta migratoria); remark: listed apart in the source

Row | Substance | RL36 reporter activity (dual luciferase, pGL4.10-4×RL36 -1647 to -1632) in S2 cells, co-expression of Flag-CBP and Flag-Kr-h1^S154D (fold increase) [1] | E93 reporter activity (dual luciferase, pGL4.10-4×E93 -623 to -606) in S2 cells with 10 uM methoprene, co-expression of Flag-CtBP and Flag-Kr-h1 [2] [% reduction] | E93 reporter activity (dual luciferase, pGL4.10-4×E93 -623 to -606) in S2 cells, co-expression of Flag-CtBP and Flag-Kr-h1^S154D [3] [% reduction]
1 | Flag-CBP (CREB-binding protein of Locusta migratoria) (natural protein) | 1.7 | – | –
2 | Flag-CtBP (C-terminal binding protein of Locusta migratoria) (natural protein) | – | 47 | 50

Source: publication PMC8499471
